Measurements from US20240384250A1, “FIBROBLAST GROWTH FACTOR 23 MODULATING COMPOUNDS” (THE UAB RESEARCH FOUNDATION, priority 2021, published 2024).
Entries after “also recorded” stand apart in the source; their conditions may differ.

T1: FGF23 binding to FGFR1c (Homo sapiens, UniProt P11362+Q9GZV9)
T1 construct: Fc-coupled FGFR ectodomains were immobilized on protein A/G beads; purchased R&D Systems 2604FG025/CF or 2629FG025/CF; 658FR050
T1 sequence (Q9GZV9 25-251): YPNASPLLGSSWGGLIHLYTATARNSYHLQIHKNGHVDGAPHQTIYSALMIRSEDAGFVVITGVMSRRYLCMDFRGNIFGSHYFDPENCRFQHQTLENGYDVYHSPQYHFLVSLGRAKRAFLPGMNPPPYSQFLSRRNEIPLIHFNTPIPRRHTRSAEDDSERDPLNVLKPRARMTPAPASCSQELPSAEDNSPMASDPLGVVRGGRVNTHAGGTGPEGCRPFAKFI
T1 sequence (P11362 22-376 limits assumed): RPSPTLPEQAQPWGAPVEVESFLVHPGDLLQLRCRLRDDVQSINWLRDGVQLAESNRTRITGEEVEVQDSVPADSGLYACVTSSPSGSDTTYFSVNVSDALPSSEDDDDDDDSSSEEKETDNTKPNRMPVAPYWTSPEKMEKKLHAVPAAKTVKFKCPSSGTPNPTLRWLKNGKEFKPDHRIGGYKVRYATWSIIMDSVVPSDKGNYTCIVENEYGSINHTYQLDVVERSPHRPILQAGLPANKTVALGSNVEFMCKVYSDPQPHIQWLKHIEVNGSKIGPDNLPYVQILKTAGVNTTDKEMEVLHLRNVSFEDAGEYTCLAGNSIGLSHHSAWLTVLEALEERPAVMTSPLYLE

T2: FGF23 binding to FGFR4 (Homo sapiens, UniProt P22455+Q9GZV9)
T2 construct: Fc-coupled FGFR ectodomains were immobilized on protein A/G beads; purchased R&D Systems 2604FG025/CF or 2629FG025/CF; 685FR050
T2 sequence (Q9GZV9 25-251): T1 sequence (Q9GZV9 25-251)
T2 sequence (P22455 22-369 limits assumed): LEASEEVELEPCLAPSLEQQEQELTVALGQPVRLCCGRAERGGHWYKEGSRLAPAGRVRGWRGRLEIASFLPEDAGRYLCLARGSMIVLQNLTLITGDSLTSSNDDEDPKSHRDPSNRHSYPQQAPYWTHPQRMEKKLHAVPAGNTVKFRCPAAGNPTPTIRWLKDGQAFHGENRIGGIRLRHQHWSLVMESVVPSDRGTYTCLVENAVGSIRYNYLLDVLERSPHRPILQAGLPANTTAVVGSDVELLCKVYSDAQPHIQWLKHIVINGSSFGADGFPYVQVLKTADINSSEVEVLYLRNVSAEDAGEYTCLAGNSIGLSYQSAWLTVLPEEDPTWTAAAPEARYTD

B1: FGF23: recombinant fibroblast growth factor 23 protein from R&D Systems (protein)
chain: YPDTSPLLGSNWGSLTHLYTATARTSYHLQIHRDGHVDGTPHQTIYSALMITSEDAGSVVITGAMTRRFLCMDLHGNIFGSLHFSPENCKFRQWTLENGYDVYLSQKHHYLVSLGRAKRIFQPGTNPPPFSQFLARRNEVPLLHFYTVRPRRHTRSAEDPPERDPLNVLKPRPRATPVPVSCSRELPSAEEGGPAASDPLGVLRRGRGDARGGAGGADRCRPFPRFV
B2: sKL: recombinant soluble α-klotho ectodomain, mouse aa 35-982 and human aa 34-981, FLAG- or Strep/His-tagged, purified from HEK293 cells (protein)
chain: EPGDGAQTWARFSRPPAPEAAGLFQGTFPDGFLWAVGSAAYQTEGGWQQHGKGASIWDTFTHHPLAPPGDSRNASLPLGAPSPLQPATGDVASDSYNNVFRDTEALRELGVTHYRFSISWARVLPNGSAGVPNREGLRYYRRLLERLRELGVQPVVTLYHWDLPQRLQDAYGGWANRALADHFRDYAELCFRHFGGQVKYWITIDNPYVVAWHGYATGRLAPGIRGSPRLGYLVAHNLLLAHAKVWHLYNTSFRPTQGGQVSIALSSHWINPRRMTDHSIKECQKSLDFVLGWFAKPVFIDGDYPESMKNNLSSILPDFTESEKKFIKGTADFFALCFGPTLSFQLLDPHMKFRQLESPNLRQLLSWIDLEFNHPQIFIVENGWFVSGTTKRDDAKYMYYLKKFIMETLKAIKLDGVDVIGYTAWSLMDGFEWHRGYSIRRGLFYVDFLSQDKMLLPKSSALFYQKLIEKNGFPPLPENQPLEGTFPCDFAWGVVDNYIQVDTTLSQFTDLNVYLWDVHHSKRLIKVDGVVTKKRKSYCVDFAAIQPQIALLQEMHVTHFRFSLDWALILPLGNQSQVNHTILQYYRCMASELVRVNITPVVALWQPMAPNQGLPRLLARQGAWENPYTALAFAEYARLCFQELGHHVKLWITMNEPYTRNMTYSAGHNLLKAHALAWHVYNEKFRHAQNGKISIALQADWIEPACPFSQKDKEVAERVLEFDIGWLAEPIFGSGDYPWVMRDWLNQRNNFLLPYFTEDEKKLIQGTFDFLALSHYTTILVDSEKEDPIKYNDYLEVQEMTDITWLNSPSQVAVVPWGLRKVLNWLKFKYGDLPMYIISNGIDDGLHAEDDQLRVYYMQNYINEALKAHILDGINLCGYFAYSFNDRTAPRFGLYRYAADQFEPKASMKHYRKIIDSNGFPGPETLERFCPEEFTVCTECSFFHTRKS
modifications: left off: small tags and cut ends
notes: recombinant soluble α-klotho ectodomain, mouse aa 35-982 and human aa 34-981, FLAG- or Strep/His-tagged, purified from HEK293 cells

How the values were obtained:
[1] = target: T1, FGF23 binding to FGFR1c; assay: Pull-down of FGF23 with Fc-FGFR on protein A/G beads with sKL, heparin or PBS; settings: with heparin, or alone
Experimental: To study the interaction between Fc-tagged FGFR isoforms (Fc-FGFR), FGF isoforms, and sKL, immunoprecipitation studies were conducted. Protein A beads (6501, BioVision) and protein G beads (6511, BioVision) were used at 25 μl of a 50% stock slurry per sample in a total bead volume of 50 μl. Beads were washed 5× in activity buffer (50 mM Tris [pH 7.4], 200 mM NaCl, 0.01% Tween 20). Bead spin-down assays were all performed for 2 minutes at 5000 g. Beads were resuspended in 1 ml of activity buffer in a 1.5-ml snap cap tube. One microgram of Fc-FGFR1 to 4 was incubated with the beads for 1 hour on a bead rotator. Control samples were incubated with 2 μg of anti-FGF antibody instead of Fc-FGFR. Beads were then pelleted at 5000 g for 2 minutes and washed 5× with activity buffer. Beads were resuspended and incubated with different combinations of 500 ng of FGF, 1 μg of sKL, 1.6 United States Pharmacopeia (USP) units of heparin, or phosphate-buffered saline (PBS). Beads were incubated for 1 hour on a tube rotator, and beads were pelleted and washed as before. One hundred microliters of 1× Laemmli sample buffer (1610737, Bio-Rad) with 1.42 M 2-mercaptoethanol was added, and samples were boiled for 5 minutes. Samples were analyzed using SDS-PAGE and Western blotting.
The sample (20 μl) was loaded onto Mini-PROTEAN TGX Precast Gel 4-20% for experiments with <9 samples (4568094, Bio-Rad) or Criterion TGX Precast Gel 4-20% (5678094, Bio-Rad) for experiments with >9 samples. Gels were run in 1× Tris/Glycine/SDS buffer (1610732, Bio-Rad) at 150 V and stopped when the sample dye reached the end of the gel. Gels were removed and electrotransferred via a semi-dry cassette (1703940, Bio-Rad) in I× Tris/Glycine buffer (1610734, Bio-Rad) with 20% methanol. Gels were transferred onto polyvinylidene diflouride membranes (IPVH00010, Millipore) at 20 V for 1 hour. Membranes were then blocked in 5% dried milk with 0.5% Tween 20 diluted in Tris-buffered saline (TBST; pH 7.5) for 1 hour and probed with antibodies against specific antigens at 1:1000 in TBST with 5% dried milk. Blots were washed 3× for 5 minutes in TBST and probed with HRP-coupled secondary antibodies against specific species at 1:10,000 in TBST with 5% dried milk. Membranes were imaged on the SRX-101A X-ray film developer (Konica Minolta).

[2] = target: T2, FGF23 binding to FGFR4; assay: Plate-based binding, FGF23 coated, then sKL, heparin or PBS, then Fc-FGFR; settings: with sKL, with heparin 0.4 USP, or alone
Experimental: Proteins were coated on 96-well plates (MaxiSorp; 439454, Thermo Fisher Scientific), and proteins were added to wells in 100 μl of enzyme-linked immunosorbent assay (ELISA) coating buffer (E107, Bethyl Laboratories) with a lid placed overtop and incubated at 4° C. overnight. Plates were washed 5× with 350 μl of assay buffer (50 mM Tris [pH 7.4], 200 mM NaCl, 0.01% Tween 20) on a 50 TS microplate washer (BioTek). Plates were blocked for 1 hour in 200 μl of assay buffer with 0.5% BSA. Plates were washed as before, and proteins were incubated on plates in 100 μl of assay buffer with 0.5% BSA. Proteins or heparin was incubated in orders described in the respective figure legends. Assays using FLAG-tag-based detection were incubated with anti-FLAG coupled to HRP at 1:20,000, and assays using Fc detection were incubated with anti-human Fc coupled to HRP at 1:10,000. Plates were washed as above, and 100 μl of 3,3′,5,5′-tetramethylbenzidine (TMB) substrate (E102, Bethyl Laboratories) was added for 15 to 20 minutes until positive wells developed a dark blue color. Reactions were stopped with ELISA stop solution (E115, Bethyl Laboratories) and analyzed using the Synergy HI plate reader (BioTek) at 450 nm wavelength. […] As a control to remove background absorbance values, wells were coated with an equal amount of BSA to match the amount of protein coated in experimental wells and treated the same as experimental wells. To study the effects of sKL on the binding between paracrine FGFs and FGFRs, plates were run as above except coated with paracrine FGFs. Fc-FGFR1 was preincubated with sKL or vehicle for 60 minutes, and then the combination was added to wells and the assay was run as before.

Molecule	FGF23 co-precipitation with Fc-FGFR1c [1]	binding of coated FGF23 to Fc-FGFR4 [2]
B1	no FGF23 binding was detected	low affinity; also recorded: weak affinity
B2	could coprecipitate sKL and FGF23; also recorded: complex formation with FGFR1c	highest FGF23-sKL affinities; also recorded: increased; also recorded: the strongest
